Test results reported in patent US10919943B2, “Mutant proteins enabling agrochemical control of plant gene expression” (The Regents of the University of California, priority 2016, dated 2021).
Changes are numbered by the printed parent chain. Names may count otherwise. Marks after values point to notes of the source that are not given here.

Assays:
[1] = target: T1, HAB1^! (Arabidopsis thaliana); assay: In vitro PP2C assay, ABA-promoted inhibition of GST-HAB1^! by receptor; type: biochemical; conditions: in response to ABA; 100 nM receptor, 50 nM PP2C; FIG. 2
T1 construct: 6xHis (N); made in house; host or cells: E. coli BL21 [DE3]pLysS
T1 sequence (O49686 whole entry T162D): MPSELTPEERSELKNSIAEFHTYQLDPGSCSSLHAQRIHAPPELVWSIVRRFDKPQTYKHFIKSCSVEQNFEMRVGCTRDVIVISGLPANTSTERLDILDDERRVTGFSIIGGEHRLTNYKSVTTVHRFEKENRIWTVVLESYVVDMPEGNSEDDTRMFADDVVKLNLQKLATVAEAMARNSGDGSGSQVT
Description: (§1) In the presence of ABA, wild type PYR1 binds to HAB1 and docks into its active site, which inhibits its enzymatic activity by blocking access of substrates. To characterize the orthogonal PYR1^! and HAB1^! interaction biochemically, we produced recombinant forms of each protein in E. coli, along with the wild type form, and tested the wild type and orthogonal mutant for their ability to inhibit HAB1 and HAB1^! activities in vitro. We cloned PYR1^! into pET28 to generate 6×-His tagged receptor and cloned HAB1^! into pGEX-4T-1 to create a GST-fusion protein. The previously constructed (S.-Y. Park et al., 2009) wild type 6×-His-PYR1 and GST-HAB1 constructs were used for producing recombinant wild type proteins. The 6×-His-tagged receptors and GST-tagged PP2Cs were expressed and purified as previously described. Briefly, the proteins were expressed in BL21 [DE3]pLysS E. coli host cells at 18° C. overnight. […] The plates were read using a Victor 2 plate reader (PerkinElmer) (355 nm excitation, 460 nm emission) and assays run in triplicate. The PP2C activity values reported are expressed as percent control values, which were calculated by including the carrier solvent (1% DMSO) and the specific receptor assayed, but no ligand. […]

HAB1 [2] = assay: In vitro PP2C assay, ligand-promoted inhibition of GST-HAB1 by receptor; type: biochemical, Arabidopsis; conditions: ABA-promoted; FIG. 2
Description: as §1, with “overnight. Fusion proteins were purified from sonicated lysates using Ni-NTA agarose (Qiagen, USA) or Pierce™ Glutathione Agarose (Thermo Scientific) according to the manufacturer's instructions. PP2C assays were conducted in 96-well polystyrene flat-bottom microtitre plates (Greiner).” for “overnight.”
According to our current understanding, in order for ABA signaling to be initiated in vivo, PP2C activity must be inhibited to enable accumulation of active SnRK2 kinases. […] 4-methylumbeliferyl phosphate was added (1 mM final concentration) was added to the reactions after 30 minutes equilibration and plates were read by fluorimetry. The PP2C activity values reported are expressed as percent control values, which was calculated by including the carrier solvent (1% DMSO) and the specific receptor assayed, but no ligand.

HAB1 [3] = assay: Yeast two hybrid of pBD-PYR1 site saturation mutants with pACT-HAB1 on 10 μM ABA, β-galactosidase staining; type: cell-based, Arabidopsis; parameters: key: x: Mutations in PYR1 that disrupt ABA-induced binding to PYR1 to HAB1; conditions: S. cerevisiae Y190, 10 μM ABA; dead = lack of visible staining in comparison to wild type control
How it was run: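 Binding was read by β-galactosidase staining of chloroform-lysed colonies after 2 days at 30° C on SD (-Leu, -Trp) plates containing 10 μM (+)-ABA. Yeast strain Y190 carried the BD-PYR1 single-substitution mutants plus the AD-HAB1 fusion. Absence of staining versus the wild-type control defined "dead" mutants.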

HAB1^! = target: T2, HAB1^! (Arabidopsis thaliana, UniProt O49686+Q9CAJ0, F108A/F159L/K59R/S122G/T162D/V393R/V81I/Y58H); assay: Yeast two hybrid, mandipropamid-promoted interaction of PYR1 variants with HAB1^!; type: cell-based; conditions: FIG. 3
T2 construct: expressed in transfected cells
T2 sequence (O49686 whole entry Y58H/K59R/V81I/F108A/S122G/F159L/T162D): as the sequence (O49686 whole entry T162D) above, with Y58H, K59R, V81I, F108A, S122G, F159L counted along it
T2 sequence (Q9CAJ0 4-511 V393R): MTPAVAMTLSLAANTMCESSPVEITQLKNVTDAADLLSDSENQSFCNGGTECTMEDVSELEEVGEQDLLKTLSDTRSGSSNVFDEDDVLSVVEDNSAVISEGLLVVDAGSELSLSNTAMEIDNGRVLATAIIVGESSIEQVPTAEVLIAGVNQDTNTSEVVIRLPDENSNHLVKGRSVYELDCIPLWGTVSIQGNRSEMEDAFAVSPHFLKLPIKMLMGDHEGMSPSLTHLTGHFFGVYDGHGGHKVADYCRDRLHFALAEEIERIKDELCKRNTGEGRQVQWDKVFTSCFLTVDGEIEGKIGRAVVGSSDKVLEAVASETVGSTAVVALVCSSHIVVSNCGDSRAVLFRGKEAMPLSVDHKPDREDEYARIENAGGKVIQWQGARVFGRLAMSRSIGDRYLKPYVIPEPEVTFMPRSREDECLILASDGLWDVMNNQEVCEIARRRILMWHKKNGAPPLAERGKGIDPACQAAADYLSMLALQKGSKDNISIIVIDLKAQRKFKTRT
Description: (§2) To engineer orthogonal mandipropamid responsiveness, we introduced the PYR1^! mutation into the PYR1^MANDI receptor to create a septuple mutant called PYR1^!-MANDI (PYR1^Y58H;K59R;V81I;F108A;S122G;F159L;T162D). This mutant interacts with HAB1^! and HAB^!-2 in response to low μM mandipropamid in yeast two-hybrid assays, but is ˜100-fold less sensitive than the PYR1^MANDI/HAB1 interaction, which responds to concentrations in the low nM range (FIG. 3).

HAB1^!-2 = assay: Yeast two hybrid, mandipropamid-promoted interaction of PYR1 variants with HAB1^!-2; type: cell-based; conditions: FIG. 3, FIG. 4
Description: as §2
To improve sensitivity, we mutagenized ligand contacting and interface residues in PYR1^!-MANDI using NNK primers, pooled the mutant libraries, and used the mutagenized receptors in selection experiments using to identify enhancer mutations. The NNK mutagenesis screen targeted the following residues: P55, H60, F61, I62, K63, V83, S85, G86, L87, P88, A89, S92, E94, I110, H115, R116, L117, Y120, E141, P148, G150, N151, D154, D155, T156, M158, A160, V163, V164, L166, N167, and K170. […] Since M158 and A160 flank the […] mutation present in PYR1^MANDI, we inferred that the closely located orthogonalizing T162D mutation in PYR1^!-MANDI may have reduced mandipropamid sensitivity by altering the local structure of the C-terminal α3-helix, which participates in ligand-induced conformational changes needed for PP2C binding (Nishimura et al., 2009). We therefore simultaneously mutagenized positions M158, F159 and A160 using a primer with degenerate NNK codons at all three positions. F159 was included in this mutagenesis because we have previously observed that multiple substitutions at F159 (A,C,I,L,M,T, or V) are permissive for mandipropamid responsiveness (S. Y. Park et al., n.d.), and sought to test whether residues other than leucine at position 159 might function better in the context of simultaneous changes to both A160 and M158. The mutagenic primer was used in QuickChange mutagenesis reactions using pBD-PYR1^!-MANDI template, and a library of ˜12,000 clones was generated. Plasmid DNA for the library was prepared from pooled E. coli transformants, and subsequently transformed into S. cerevisiae strain MAV99 harboring pACT-HAB1^!-2. ˜20,000 yeast transformants were generated, pooled, and plated onto SD(-Leu,-Trp) agar media supplemented with 0.1% fluorotic acid (to select against mutants that interact in a ligand-independent fashion). The surviving cells were collected and plated onto SD(Leu,-Trp,-Ura) plates supplemented with 50 nM mandipropamid. The colonies displaying the best uracil-independent growth were isolated and retested on different mandipropamid concentrations and then stained in β-galactosidase assays to rank their relative strength.

[4] = Phosphatase activity of recombinant GST-HAB1 proteins (4-methylumbeliferyl phosphate); type: biochemical; conditions: 1 μg protein, percent control (GST-HAB1); FIG. 7
Description: as §1, with “described.” for “described. Briefly, the proteins were expressed in BL21 [DE3]pLysS E. coli host cells at 18° C. overnight.”
To characterize HAB1^!-3 and HAB1* in vitro, we cloned them into pGEX-4T-1 to create GST-fusion proteins. […] The PP2C activity values reported are expressed as percent control (GST-HAB1) from triplicate measurements.

PYR1*^-MANDI = target: T3, PYR1*^-MANDI (Arabidopsis thaliana, UniProt O49686, A160V/F108A/F159V/K59R/M158I/S122G/T162D/V81I/Y58H); assay: Yeast two hybrid, mandipropamid-induced interaction of HAB1 variants with pBD-PYR1*^-MANDI; type: cell-based; conditions: FIG. 5
T3 construct: expressed in transfected cells; host or cells: S. cerevisiae strain MAV99 (selection)
T3 sequence (O49686 1-191 Y58H/K59R/V81I/F108A/S122G/M158I/F159V/A160V/T162D): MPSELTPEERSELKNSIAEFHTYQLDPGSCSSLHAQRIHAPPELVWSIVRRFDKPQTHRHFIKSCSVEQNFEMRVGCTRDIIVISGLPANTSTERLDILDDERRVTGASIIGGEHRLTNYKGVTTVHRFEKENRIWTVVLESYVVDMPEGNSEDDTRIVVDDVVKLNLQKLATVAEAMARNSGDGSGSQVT
Description: To investigate the effects of overexpressing HAB1^!-2 in Arabidopsis, we used Agrobacterium mediated transformation to generate 35S::GFP-HAB1^!-2 transgenic plants. HAB1^!-2 was cloned from pACT-HAB1^!-2 into pEGAD, a binary vector suitable for plant transformation, generating a 35S-driven GFP-HAB1^!-2 fusion protein. The clone was transformed into Agrobacterium and the floral dip method used to transform Arabidopsis. After selection of T0 seed on soil containing glufosinate, several T1 seedlings were identified. […] As an alternate strategy, we eliminated HAB1's catalytic activity by introducing a mutation in a conserved metal-ion binding residue (D204), which is homologous to D131A mutation in ABI1, previously shown to eliminate phosphatase activity without disrupting wild type receptor-ABI1 interactions (Liang et al., 2011). We used QuickChange mutagenesis to introduce the D204A mutation into pACT-HAB1^!-2, generating pACT-HAB1^!-3. When tested for mandipropamid induced interactions with pBD-PYR1*^-MANDI, HAB1^!-3 is ˜10-fold less sensitive to mandipropamid relative to HAB1^!-2 (FIG. 5).
D204 is located within HAB1's catalytic active site and binds to one of 3 catalytic Mg^++ ions that participate in catalysis. […] It is likely that disruptions to active site structure introduced by D204A destabilize the PYR1*^-MANDI/HAB1^!-3 interaction relative to HAB1^!-2. We reasoned that suppressor mutations in other HAB1 interface or active site residues could restore sensitivity by strengthening interactions with PYR1*^-MANDI. To identify such suppressors, we mutagenized the pACT-HAB1^!-3 template using NNK mutagenesis in 28 residues located with at the PYR1 binding interface. The residues targeted were: R199, S200, E201, E203, D243, G244, H245, G246, G247, S322, E323, T324, D346, K365, K381, 1383, Q384, W385, Q386, R389, F391, G392, Y404, S431, G433, D436, D492 and N394. The pACT-HAB1^!-3 template was mutagenized in 28 separate NNK mutagenesis reactions using the QuickChange protocol. Mini-libraries, each containing ˜1000 clones, were made for each NNK reaction and plasmid DNA for the 28 mutations prepared, pooled, and then transformed into S. cerevisiae strain MAV99 co-transformed with pBD-PYR1*^-MANDI, and then plated onto selective SD(-Leu,-Trp,-Ura) agar media supplemented with 500 nM mandipropamid. […] S322D and R199A were combined using the Lightning Multi-site Mutagenesis™ (Agilent, USA) method, and the resultant pentuple mutant tested in combination with pBD-PYR1*^-MANDI for sensitivity to mandipropamid using β-galactosidase assays.

B1: T162D: PYR1 mutant T162D, denoted PYR1^! (protein, UniProt O49686 1-191, looked up, variant T162D)
Abscisic acid receptor PYR1: T3 sequence (O49686 1-191 Y58H/K59R/V81I/F108A/S122G/M158I/F159V/A160V/T162D) with H58Y, R59K, I81V, A108F, G122S, I158M, V159F, V160A
With B1 the “inhibition of HAB1^! phosphatase activity” value [1] was “does not strongly inhibit”, the “inhibition of HAB1 phosphatase activity” value (HAB1 [2]) was “unable to inhibit” and the “Mutations in PYR1 that disrupt ABA-induced binding to PYR1 to HAB1” value (HAB1 [3]) was “x”.

B2: PYR1^!-MANDI: septuple PYR1 mutant (protein, UniProt O49686 1-191, looked up, variant Y58H K59R V81I F108A S122G F159L T162D)
Abscisic acid receptor PYR1: T3 sequence (O49686 1-191 Y58H/K59R/V81I/F108A/S122G/M158I/F159V/A160V/T162D) with I158M, V159L, V160A
With B2 the “mandipropamid concentration to which the interaction responds” value (HAB1^!) was “low μM” and the “mandipropamid concentration to which the interaction responds” value (HAB1^!-2) was “low μM”.

B3: HAB1^!-3: HAB1^!-2 with the D204A mutation, catalytically inactive (protein)
chain: MTPAVAMTLSLAANTMCESSPVEITQLKNVTDAADLLSDSENQSFCNGGTECTMEDVSELEEVGEQDLLKTLSDTRSGSSNVFDEDDVLSVVEDNSAVISEGLLVVDAGSELSLSNTAMEIDNGRVLATAIIVGESSIEQVPTAEVLIAGVNQDTNTSEVVIRLPDENSNHLVKGRSVYELDCIPLWGTVSIQGNRSEMEAAFAVSPHFLKLPIKMLMGDHEGMSPSLTHLTGHFFGVYDGHGGHKVADYCRDRLHFALAEEIERIKDELCKRNTGEGRQVQWDKVFTSCFLTVDGEIEGKIGRAVVGSSDKVLEAVASETVGSTAVVALVCSSHIVVSNCGDSRAVLFRGKEAMPLSVDHKPDREDEYARIENAGGKVIQWQGARVFGRLAMSRSIGDRYLKPYVIPEPEVTFMPRSREDECLILASDGLWDVMNNQEVCEIARRRILMWHKKNGAPPLAERGKGIDPACQAAADYLSMLALQKGSKDNISIIVIDLKAQAKFKTRT
modifications: left off: small tags and cut ends
In the case of B3, the “catalytic activity in vitro” value [4] is reported as “Neither HAB1^!-3 or HAB1* display detectable catalytic activity” and the “fold less sensitive to mandipropamid relative to HAB1^!-2” value (PYR1*^-MANDI) is reported as about 10 fold.
